Source: the supplement of paper PMC10567573
± gives the standard deviation.

Experiment: protein stability index of a GFP-peptide fusion (GPS, HEK-293T) (PSI 1-6); higher = more stable
Details: c terminus: a fixed tail appended
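Further: 24-mer peptide tiles fused after GFP, lentivirally expressed, FACS-sorted into six equal bins by GFP/DsRed ratio, decoded by Illumina sequencing, PSI is the read-weighted mean bin number.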

| Sequence | protein stability index (treatment: DMSO) | protein stability index (treatment: MLN4924 1 uM, 8 h) |
| --- | --- | --- |
| TSSSTSGSSDKVYAHQMVRTDSRE [MLH1] | 5.08 ± 0.17 | 5.1 ± 0.17 |
| ADSETPTIQKGSYTFVPWLLSFKR [TNFSF13B] | 2.52 ± 0.28 | 2.58 ± 0.26 |
| KKFRTKSRTWAGEKSKREMYSRLK [CDC25A] | 3.05 ± 0.39 | 3.46 ± 0.28 |
| ASIHWDWKIALLFVAFALCMFCLY [SLC35F2] | 2.17 ± 0.36 | 2.26 ± 0.24 |
| LLAQARDEAQGACLQQKQVVAEAQ [LRRC45] | 4.847 ± 0.003 | 4.9 ± 0.087 |
| GGLQHRVTAKTAPDVLRTKPAFIG [PTPRD] | 3.44 ± 0.5 | 3.07 ± 0.34 |
| SPFSPGLFHRLDEDWDSALFAELG [ATF6] | 2.6 ± 0.28 | 2.44 ± 0.16 |
| PFFVLNSDVICDFPFQAMVQFHRH [GMPPB] | 2.4 ± 0.67 | 2.34 ± 0.29 |
| RGQEPARADQLCQQELRELRRELE [PRPH] | 4.48 ± 0.36 | 4.53 ± 0.5 |
| HKKTTHKLNCDPSRIYKPQTRLKR [DFFB] | 4.07 ± 0.28 | 4.22 ± 0.25 |
| RYAPLSFRNPMMSKLRNYRKDLAK [VTI1B] | 2.76 ± 0.23 | 2.74 ± 0.18 |
| LPPDMTVVPGDHLLEPEVADGGGA [KCNA3] | 5.35 ± 0.39 | 5.42 ± 0.096 |
| AEKIEYNESMKAYHNSPAYLAYIN [SMARCE1] | 3.31 ± 0.5 | 3.46 ± 0.31 |
| DIMETSGWKSMIQSHPHLVAEAFR [SPOPL] | 2.49 ± 0.37 | 2.68 ± 0.54 |
| APDKTSTVLTRHSQPATPTPLQSR [PDLIM7] | 4.68 ± 0.17 | 4.82 ± 0.23 |
| KFAGSFYFAITVITTIGYGHAAPG [KCNK9] | 3.42 ± 0.31 | 3.27 ± 0.17 |
| IRMIQEEKESTELRAEEIETRVTS [PPFIA4] | 5.22 ± 0.33 | 5.21 ± 0.38 |
| HLPWQYHAGQGGLFYSAEVEMLCD [CCDC3] | 2.94 ± 0.44 | 2.52 ± 0.2 |
| AFEESKIDEHHFVAVALRKPDGSR [AASDHPPT] | 4.01 ± 0.52 | 4.2 ± 0.53 |
| FVEDSFDPNINPTIGASFMTKTVQ [RAB22A] | 2.97 ± 0.27 | 3.34 ± 0.46 |
| ECGKRFLRSSDLYRHQRLHTGERP [ZNF449] | 3.08 ± 0.26 | 3.22 ± 0.24 |
| LSVTISFRIYKSVIQAVQKSEEGH [RTN3] | 3.26 ± 0.61 | 3 ± 0.42 |

| Sequence | protein stability index (treatment: DMSO) | protein stability index (treatment: MLN4924 1 uM, 8 h) |
| --- | --- | --- |
| GGDYGLVTAGCGFGKDFRKGLLKK [PPTC7] | 3.22 ± 0.36 | 3.6 ± 0.48 |
| GIRLPNGKLKCDICGIICIGPNVL [IKZF1] | 2.61 ± 0.48 | 2.46 ± 1 |
| TRDLAGLRQFFKQLPSPPFLPAAG [CEBPD] | 2.56 ± 0.28 | 2.44 ± 0.048 |
| AIDLNKKGKDNKHPMYRRLVHSAV [ZMYND11] | 2.46 ± 0.41 | 2.92 ± 0.38 |
| HFKKTKKMGGKDFSFRYQQELEEE [ATL3] | 2.59 ± 0.56 | 3.54 ± 0.81 |
| LRHLELLDEFARENIDSLYNVNLS [SCNN1D] | 2.66 ± 0.092 | 2.94 ± 0.34 |
| VNYLPQNMTQDEFKSLFGSIGDIE [ELAVL3] | 3.8 ± 0.11 | 4 ± 0.27 |
| AFNFLLVWYYCTLTIRESILINNG [TMEM120A] | 2.87 ± 0.055 | 3.15 ± 0.51 |
| RTLPAFQVPYPPRQLLRDFQSRLP [P3H4] | 2.76 ± 0.2 | 2.92 ± 0.54 |
| LVVIQQPSLDSRQRLDYEREIQPT [SPRY1] | 2.96 ± 0.2 | 3.1 ± 0.11 |
| TNLPKGACALLLTSVDHDRAPVVG [DLC1] | 2.97 ± 0.17 | 2.85 ± 0.3 |
| KVLGHVNNILISAVLPTAFRVAKK [GDAP1] | 2.83 ± 0.59 | 2.44 ± 1.3 |
| AQVRKLELERAQHELLLGSLQQQH [FBF1] | 3.62 ± 0.18 | 3.71 ± 0.17 |
| NKQGHGCESDIWALGCVMYTMLLG [PLK2] | 2.87 ± 0.58 | 2.54 ± 0.064 |
| FPRKSELTEHQRIHTGIKPHQCSE [ZNF649] | 3.92 ± 0.23 | 4.24 ± 0.18 |
| QTGGDVNVEMDAAPGVDLSRILNE [KRT16] | 4.97 ± 0.31 | 5.18 ± 0.085 |
| WNPDARYSEHFLQEAKLLHWNGRH [GLT8D2] | 2.81 ± 0.21 | 2.67 ± 0.27 |
| EERKNEMTQVITRTQEEKLEHVRA [TRIM55] | 5.3 ± 0.21 | 5.54 ± 0.21 |
| SQIHNNGQSDFRPKNGRHAWIWHD [LOXL2] | 3.31 ± 0.35 | 3.22 ± 0.22 |
| RLVKEGRFVPSNPIGILTTSYCEL [PPTC7] | 2.39 ± 0.21 | 2.12 ± 0.47 |
| HNRKVLTIFSASNYYEVGSNRGAY [PPEF2] | 2.44 ± 0.28 | 2.46 ± 0.24 |
| KESAQCVGDEFLNCKLATRAKDFL [SNX8] | 3.32 ± 0.2 | 3.21 ± 0.36 |

| Sequence | protein stability index (treatment: DMSO) | protein stability index (treatment: MLN4924 1 uM, 8 h) |
| --- | --- | --- |
| MLIFSLALEEPEKMGLQERSETFL [DNAAF3] | 2.18 ± 0.32 | 2.38 ± 0.12 |
| SSSEQLQCCQTEIIELRRTVNALE [KRT36] | 3.58 ± 0.12 | 3.34 ± 0.38 |
| VRVCDLLLKKKPPQQQHHKAKRNR [ANKRD17] | 3.33 ± 0.39 | 3.38 ± 0.22 |
| VFGFIAAYVLSKYQYFVCPVEYRS [CDS1] | 3.38 ± 0.39 | 3.15 ± 0.27 |
| EMMSQALKATFSGFTKEQQRLGIP [ETS1] | 2.35 ± 0.28 | 2.49 ± 0.2 |
| EEQATKQFLEEINKWTVQYNVSPL [PTPN9] | 2.96 ± 0.54 | 3.15 ± 0.43 |
| TDAHVWNKSVTLYTVKDKATGEVL [NLN] | 3.46 ± 0.6 | 3.36 ± 0.55 |
| DPDPDPEPAGGSRPGPAVPGLRAL [CMTM3] | 4.92 ± 0.28 | 4.68 ± 0.11 |
| QENYLEYRQVPGSDPARYEFLWGP [MAGEA10] | 3.28 ± 0.27 | 3.54 ± 0.32 |
| AFFASHQCSNRIGSMKIKSSWDID [FBXO34] | 2.46 ± 0.15 | 2.42 ± 0.17 |
| LPGRGRVLSSWSRAFVSIQEEMAE [RHOBTB2] | 3.08 ± 0.54 | 3.25 ± 0.27 |
| EEDNWDPELMEHTEAESEQEGSSG [TEX19] | 5.7 ± 0.26 | 5.65 ± 0.16 |
| LPYQHFSAHFTSGPLVPRLAGMAN [TBX5] | 2.7 ± 0.27 | 2.56 ± 0.11 |
| HCIQQILEAVLHCHQMGVVHRDLK [CAMK2B] | 2.6 ± 0.7 | 2.95 ± 0.37 |
| FLLDVIPVDGARYRWQGRRWEPSG [TBX6] | 1.81 ± 0.33 | 2.4 ± 0.3 |
| AKLALYPCASLLAFASTCLLSRFS [TMEM175] | 2.45 ± 0.49 | 2.52 ± 0.52 |
| PDVENEVKRLLRSDAEAVSTRWEV [TAF7L] | 3.24 ± 0.63 | 3.76 ± 0.65 |
| FHALVREIRRKEKEAVLAMEKKSK [RIT1] | 2.52 ± 0.6 | 3.07 ± 0.57 |
| FSSLNHIVEKRVLAHLAPLFDNPK [INTS3] | 2.27 ± 0.18 | 2.4 ± 0.44 |
| TVIFYGADSEQADIARMLYKDTCH [ZMYND11] | 2.28 ± 0.17 | 2.68 ± 0.4 |
| VDSLESHIPSQEVPGTQVGQGGKL [ZNF263] | 5.33 ± 0.2 | 5.16 ± 0.22 |
